Experiments:
Experiment in all cases: biochemical
Assay type in all cases: biochemical
[1] = biological target: T1, 266 human kinases (Homo sapiens, UniProt O00418); conditions: eEF-2K(h); 100 μM
T1 sequence (O00418 whole entry, looked up): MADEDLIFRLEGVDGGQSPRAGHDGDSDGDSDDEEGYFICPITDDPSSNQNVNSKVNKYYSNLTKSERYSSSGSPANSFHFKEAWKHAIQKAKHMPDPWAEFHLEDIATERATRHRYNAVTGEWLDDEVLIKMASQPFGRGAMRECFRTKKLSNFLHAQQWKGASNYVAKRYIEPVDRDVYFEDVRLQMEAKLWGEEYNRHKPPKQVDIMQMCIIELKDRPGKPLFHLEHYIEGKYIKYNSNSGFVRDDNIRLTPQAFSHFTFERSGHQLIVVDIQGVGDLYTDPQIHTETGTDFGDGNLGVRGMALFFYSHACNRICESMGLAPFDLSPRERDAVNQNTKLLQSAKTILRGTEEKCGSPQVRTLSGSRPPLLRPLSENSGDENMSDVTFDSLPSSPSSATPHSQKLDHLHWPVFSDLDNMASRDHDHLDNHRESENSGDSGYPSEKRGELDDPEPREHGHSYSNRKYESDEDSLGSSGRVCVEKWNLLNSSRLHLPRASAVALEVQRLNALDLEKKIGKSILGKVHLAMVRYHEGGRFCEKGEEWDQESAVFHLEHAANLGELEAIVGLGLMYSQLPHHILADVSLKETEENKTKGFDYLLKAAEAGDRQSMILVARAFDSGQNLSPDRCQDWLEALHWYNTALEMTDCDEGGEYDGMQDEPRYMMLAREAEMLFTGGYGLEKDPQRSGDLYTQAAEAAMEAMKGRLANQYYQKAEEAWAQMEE
Method in brief: (§1)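 Steps: kinase transfers radiolabelled phosphate from ATP onto a positively charged substrate; the substrate is trapped on a negatively charged filter; bound radioactivity is counted by scintillation and compared with uninhibited (100%) activity.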

[2] = biological target: 266 human kinases (Homo sapiens, UniProt O14757); conditions: CHK1(h); 100 μM
Method in brief: as §1

[3] = biological target: 266 human kinases (Homo sapiens, UniProt O14965); conditions: Aurora-A(h); 100 μM
Method in brief: as §1

[4] = biological target: 266 human kinases (Homo sapiens, UniProt P00519, Q252H); conditions: Abl(Q252H)(h); 100 μM
Method in brief: as §1

[5] = biological target: 266 human kinases (Homo sapiens, UniProt P00533, T790M); conditions: EGFR(T790M)(h); 100 μM
Method in brief: as §1

[6] = biological target: 266 human kinases (Homo sapiens, UniProt P06493); conditions: CDK1/cyclinB(h); 100 μM
Method in brief: as §1

[7] = biological target: 266 human kinases (Homo sapiens, UniProt P35916); conditions: Flt4(h); 100 μM
Method in brief: as §1

[8] = biological target: 266 human kinases (Homo sapiens, UniProt P53355); conditions: DAPK1(h); 100 μM
Method in brief: as §1

[9] = biological target: 266 human kinases (Homo sapiens, UniProt P57059); conditions: SIK(h); 100 μM
Method in brief: as §1

[10] = biological target: T2, 266 human kinases (Homo sapiens, UniProt Q9UBE8); conditions: NLK(h); 100 μM
T2 sequence (Q9UBE8 1-527): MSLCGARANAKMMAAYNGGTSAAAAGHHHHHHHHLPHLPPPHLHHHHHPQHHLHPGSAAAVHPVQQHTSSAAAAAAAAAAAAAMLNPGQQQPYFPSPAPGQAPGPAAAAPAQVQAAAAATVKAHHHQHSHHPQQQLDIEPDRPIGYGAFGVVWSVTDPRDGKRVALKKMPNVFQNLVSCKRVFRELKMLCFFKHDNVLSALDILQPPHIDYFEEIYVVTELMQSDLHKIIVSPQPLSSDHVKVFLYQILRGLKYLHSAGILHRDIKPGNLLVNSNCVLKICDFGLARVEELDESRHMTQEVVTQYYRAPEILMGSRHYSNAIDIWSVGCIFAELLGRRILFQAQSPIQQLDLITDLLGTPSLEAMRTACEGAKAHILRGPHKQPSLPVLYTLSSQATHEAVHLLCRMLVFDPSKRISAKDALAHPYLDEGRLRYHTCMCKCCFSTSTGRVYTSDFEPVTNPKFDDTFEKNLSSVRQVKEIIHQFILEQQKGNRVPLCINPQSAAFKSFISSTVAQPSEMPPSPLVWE
Method in brief: as §1

[11] = biological target: 266 human kinases (Homo sapiens, UniProt P19784); conditions: CK2α2(h); 100 μM
Method in brief: as §1

[12] = biological target: 266 human kinases (Homo sapiens, UniProt Q9HCP0); conditions: CK1γ1(h); 100 μM
Method in brief: as §1

Sequence of 266 human kinases (Homo sapiens, UniProt P06493) (P06493 whole entry): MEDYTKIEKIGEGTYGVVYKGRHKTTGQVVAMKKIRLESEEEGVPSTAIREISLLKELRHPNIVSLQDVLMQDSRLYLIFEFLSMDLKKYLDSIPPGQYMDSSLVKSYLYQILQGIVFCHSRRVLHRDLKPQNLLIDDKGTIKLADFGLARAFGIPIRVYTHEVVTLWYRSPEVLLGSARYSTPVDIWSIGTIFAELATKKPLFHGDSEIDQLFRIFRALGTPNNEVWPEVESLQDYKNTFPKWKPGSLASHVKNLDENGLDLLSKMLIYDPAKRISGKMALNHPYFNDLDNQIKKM
Sequence of 266 human kinases (Homo sapiens, UniProt P57059) (P57059 whole entry): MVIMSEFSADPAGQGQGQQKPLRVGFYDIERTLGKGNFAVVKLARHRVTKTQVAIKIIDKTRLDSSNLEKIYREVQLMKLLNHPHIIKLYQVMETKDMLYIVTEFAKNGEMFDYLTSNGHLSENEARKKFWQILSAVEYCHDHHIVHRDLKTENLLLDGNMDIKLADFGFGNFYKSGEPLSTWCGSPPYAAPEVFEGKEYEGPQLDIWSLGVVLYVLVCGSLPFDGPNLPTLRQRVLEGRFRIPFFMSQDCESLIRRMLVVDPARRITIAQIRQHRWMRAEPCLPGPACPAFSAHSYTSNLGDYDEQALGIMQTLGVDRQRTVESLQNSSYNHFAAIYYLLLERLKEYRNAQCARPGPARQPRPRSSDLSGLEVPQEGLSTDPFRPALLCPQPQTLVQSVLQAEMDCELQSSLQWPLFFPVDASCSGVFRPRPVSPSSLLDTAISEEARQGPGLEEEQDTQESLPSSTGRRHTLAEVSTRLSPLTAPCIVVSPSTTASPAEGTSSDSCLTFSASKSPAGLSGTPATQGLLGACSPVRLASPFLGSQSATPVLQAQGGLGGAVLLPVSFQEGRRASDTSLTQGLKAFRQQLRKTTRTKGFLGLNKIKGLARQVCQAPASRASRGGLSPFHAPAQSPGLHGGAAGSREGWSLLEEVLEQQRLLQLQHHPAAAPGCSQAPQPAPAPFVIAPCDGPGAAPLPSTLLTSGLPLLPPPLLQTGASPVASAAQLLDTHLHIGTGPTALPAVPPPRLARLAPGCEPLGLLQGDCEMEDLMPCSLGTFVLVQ
Sequence of 266 human kinases (Homo sapiens, UniProt P19784) (P19784 whole entry): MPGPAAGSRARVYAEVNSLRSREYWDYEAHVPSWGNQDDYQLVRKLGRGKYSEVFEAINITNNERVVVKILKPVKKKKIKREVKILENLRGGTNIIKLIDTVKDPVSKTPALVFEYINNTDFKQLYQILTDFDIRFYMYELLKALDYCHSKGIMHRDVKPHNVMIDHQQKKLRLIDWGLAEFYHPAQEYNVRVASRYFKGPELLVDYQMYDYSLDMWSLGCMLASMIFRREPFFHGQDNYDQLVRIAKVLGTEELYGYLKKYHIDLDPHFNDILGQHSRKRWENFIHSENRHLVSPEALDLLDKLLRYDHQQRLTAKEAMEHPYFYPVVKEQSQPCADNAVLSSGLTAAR
Sequence of 266 human kinases (Homo sapiens, UniProt O14965) (O14965 whole entry): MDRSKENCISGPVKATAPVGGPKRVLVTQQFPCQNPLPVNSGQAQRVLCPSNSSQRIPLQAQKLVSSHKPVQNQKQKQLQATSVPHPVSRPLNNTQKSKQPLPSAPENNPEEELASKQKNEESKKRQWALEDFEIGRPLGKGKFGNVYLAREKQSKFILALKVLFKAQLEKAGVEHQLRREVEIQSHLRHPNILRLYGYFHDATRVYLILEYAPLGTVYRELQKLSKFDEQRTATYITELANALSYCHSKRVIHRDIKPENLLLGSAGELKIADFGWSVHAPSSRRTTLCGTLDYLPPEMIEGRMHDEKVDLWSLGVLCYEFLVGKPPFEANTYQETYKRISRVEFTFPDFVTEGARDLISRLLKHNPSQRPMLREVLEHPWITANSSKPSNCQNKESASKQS
Sequence of 266 human kinases (Homo sapiens, UniProt O14757) (O14757 whole entry): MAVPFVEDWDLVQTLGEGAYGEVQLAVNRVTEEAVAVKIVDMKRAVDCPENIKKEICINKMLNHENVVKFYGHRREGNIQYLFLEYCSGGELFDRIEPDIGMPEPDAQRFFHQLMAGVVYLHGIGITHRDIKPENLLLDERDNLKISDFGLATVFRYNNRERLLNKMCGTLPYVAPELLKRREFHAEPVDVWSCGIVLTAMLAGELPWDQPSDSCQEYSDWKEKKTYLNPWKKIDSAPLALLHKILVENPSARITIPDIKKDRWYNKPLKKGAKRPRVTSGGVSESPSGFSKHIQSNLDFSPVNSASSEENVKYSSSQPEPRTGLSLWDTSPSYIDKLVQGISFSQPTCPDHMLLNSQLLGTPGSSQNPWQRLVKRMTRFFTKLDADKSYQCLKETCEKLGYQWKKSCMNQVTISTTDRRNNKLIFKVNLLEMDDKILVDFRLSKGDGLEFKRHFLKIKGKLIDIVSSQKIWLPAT
Sequence of 266 human kinases (Homo sapiens, UniProt P53355) (P53355 whole entry): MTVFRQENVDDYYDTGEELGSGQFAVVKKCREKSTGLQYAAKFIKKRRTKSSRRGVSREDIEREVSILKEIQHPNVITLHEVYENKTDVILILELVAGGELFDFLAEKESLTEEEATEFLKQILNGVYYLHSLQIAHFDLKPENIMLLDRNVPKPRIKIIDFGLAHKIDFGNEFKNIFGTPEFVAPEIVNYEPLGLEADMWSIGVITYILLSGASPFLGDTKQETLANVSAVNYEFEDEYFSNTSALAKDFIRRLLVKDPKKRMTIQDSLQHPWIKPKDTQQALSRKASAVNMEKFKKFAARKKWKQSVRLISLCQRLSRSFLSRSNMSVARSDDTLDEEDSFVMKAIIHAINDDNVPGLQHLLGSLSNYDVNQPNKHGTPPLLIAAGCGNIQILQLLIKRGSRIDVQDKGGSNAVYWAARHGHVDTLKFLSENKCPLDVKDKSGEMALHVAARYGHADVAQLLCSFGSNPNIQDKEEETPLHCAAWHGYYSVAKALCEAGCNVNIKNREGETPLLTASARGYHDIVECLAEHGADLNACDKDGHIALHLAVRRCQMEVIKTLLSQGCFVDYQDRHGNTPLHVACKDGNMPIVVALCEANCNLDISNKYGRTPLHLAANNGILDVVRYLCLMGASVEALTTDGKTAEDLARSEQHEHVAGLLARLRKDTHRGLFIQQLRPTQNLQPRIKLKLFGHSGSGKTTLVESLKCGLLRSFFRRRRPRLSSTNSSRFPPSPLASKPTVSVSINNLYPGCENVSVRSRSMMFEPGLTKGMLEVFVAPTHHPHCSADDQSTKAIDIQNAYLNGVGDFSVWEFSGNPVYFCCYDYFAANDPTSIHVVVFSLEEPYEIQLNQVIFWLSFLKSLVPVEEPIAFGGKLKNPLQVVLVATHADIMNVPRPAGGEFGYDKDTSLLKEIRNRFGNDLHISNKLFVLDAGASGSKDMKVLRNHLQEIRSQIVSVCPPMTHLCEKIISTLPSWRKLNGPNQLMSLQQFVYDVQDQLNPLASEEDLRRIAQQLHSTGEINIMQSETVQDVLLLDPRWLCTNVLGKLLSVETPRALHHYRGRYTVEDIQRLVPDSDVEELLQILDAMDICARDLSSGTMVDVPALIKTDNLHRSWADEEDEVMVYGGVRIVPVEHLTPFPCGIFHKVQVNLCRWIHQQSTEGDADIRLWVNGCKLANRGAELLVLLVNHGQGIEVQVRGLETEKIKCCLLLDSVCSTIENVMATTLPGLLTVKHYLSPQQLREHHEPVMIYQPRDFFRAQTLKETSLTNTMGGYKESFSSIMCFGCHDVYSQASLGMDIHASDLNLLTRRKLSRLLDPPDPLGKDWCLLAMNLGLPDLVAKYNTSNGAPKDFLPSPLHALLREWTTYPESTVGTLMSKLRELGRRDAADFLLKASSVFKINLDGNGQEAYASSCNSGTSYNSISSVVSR
Sequence of 266 human kinases (Homo sapiens, UniProt P35916) (P35916 25-1363): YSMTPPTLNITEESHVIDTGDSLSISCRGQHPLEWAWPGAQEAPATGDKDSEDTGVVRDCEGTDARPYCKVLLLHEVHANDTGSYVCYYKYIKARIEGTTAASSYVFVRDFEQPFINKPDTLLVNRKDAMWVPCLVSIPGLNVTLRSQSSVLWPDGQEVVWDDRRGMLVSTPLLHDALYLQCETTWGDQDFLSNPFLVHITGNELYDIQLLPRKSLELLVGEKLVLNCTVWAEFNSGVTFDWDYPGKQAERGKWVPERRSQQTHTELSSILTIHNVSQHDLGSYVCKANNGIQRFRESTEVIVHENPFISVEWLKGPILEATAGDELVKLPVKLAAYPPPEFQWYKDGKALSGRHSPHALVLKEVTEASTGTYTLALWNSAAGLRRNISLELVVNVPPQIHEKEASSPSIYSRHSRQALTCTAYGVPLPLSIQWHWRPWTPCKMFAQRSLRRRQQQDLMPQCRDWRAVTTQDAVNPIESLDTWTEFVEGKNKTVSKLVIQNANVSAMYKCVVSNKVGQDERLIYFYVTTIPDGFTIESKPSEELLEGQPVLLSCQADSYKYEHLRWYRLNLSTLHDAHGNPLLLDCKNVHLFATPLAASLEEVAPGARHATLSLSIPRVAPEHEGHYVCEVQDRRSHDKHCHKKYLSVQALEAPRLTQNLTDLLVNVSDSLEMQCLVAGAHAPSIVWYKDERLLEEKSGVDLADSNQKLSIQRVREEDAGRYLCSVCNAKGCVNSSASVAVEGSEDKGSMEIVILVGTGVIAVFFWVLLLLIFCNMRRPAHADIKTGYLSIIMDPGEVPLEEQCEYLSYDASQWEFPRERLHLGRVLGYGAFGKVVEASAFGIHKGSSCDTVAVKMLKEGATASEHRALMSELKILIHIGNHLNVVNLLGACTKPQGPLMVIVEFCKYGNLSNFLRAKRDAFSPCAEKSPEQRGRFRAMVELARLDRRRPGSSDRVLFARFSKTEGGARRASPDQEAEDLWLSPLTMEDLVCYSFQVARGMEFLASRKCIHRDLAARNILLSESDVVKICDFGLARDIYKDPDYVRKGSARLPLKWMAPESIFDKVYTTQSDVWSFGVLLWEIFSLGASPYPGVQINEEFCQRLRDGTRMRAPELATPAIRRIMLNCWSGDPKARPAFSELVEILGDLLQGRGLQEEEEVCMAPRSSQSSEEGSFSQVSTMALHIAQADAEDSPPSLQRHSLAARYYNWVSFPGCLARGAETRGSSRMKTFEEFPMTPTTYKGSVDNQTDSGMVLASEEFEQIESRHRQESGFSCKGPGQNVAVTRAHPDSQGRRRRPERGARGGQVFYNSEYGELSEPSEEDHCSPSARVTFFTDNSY

Q: “HRRIKAWLKKIKALARQLGVAA (mammal) [MMI-0500]” was tested. Which “% activity” value [1] did it give?
A: 43%

Q: What about the “% activity” value [2] of the same sequence?
A: 65%

Q: And the “% activity” value [3]?
A: 110%

Q: What about the “% activity” value [4] of the same sequence?
A: 40%

Q: And the “% activity” value [5]?
A: 70%

Q: And the “% activity” value [6]?
A: 57%

Q: And the “% activity” value [7]?
A: 73%

Q: What about the “% activity” value [8] of the same sequence?
A: 0%

Q: What about the “% activity” value [9] of the same sequence?
A: 40%

Q: And the “% activity” value [10]?
A: 19%

Q: How did the “% activity” value [11] turn out when “YARAAARQARAKALNRQLGVA (mammal) [MMI-0200]” was run?
A: 88%

Q: And the “% activity” value [12]?
A: 98%
